Assay results from patent US20250011363A1, “OPTIMIZED SHORTENED PEPTIDE THAT BINDS TO ACETYLCHOLINE RECEPTOR, AND USE THEREOF” (SKINMED CO., LTD., priority 2021, published 2025).

molecular target: acetylcholine receptor (Homo sapiens, UniProt P02708); assay: SPR binding affinity (RU) of optimized 5mer/6mer/7mer peptides, Examples 6-7; conditions: 6mer-2 Top sequence; SPR; peptides tested at 10 μM
Summary of the method: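 Peptides were tested at 10 μM by surface plasmon resonance against the receptor, with binding reported as response units. Library sequences were built from frequent (top) or infrequent (bottom) amino acid combinations in 5mer, 6mer-1 and 6mer-2 series.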

Sequence of acetylcholine receptor (P02708 21-457): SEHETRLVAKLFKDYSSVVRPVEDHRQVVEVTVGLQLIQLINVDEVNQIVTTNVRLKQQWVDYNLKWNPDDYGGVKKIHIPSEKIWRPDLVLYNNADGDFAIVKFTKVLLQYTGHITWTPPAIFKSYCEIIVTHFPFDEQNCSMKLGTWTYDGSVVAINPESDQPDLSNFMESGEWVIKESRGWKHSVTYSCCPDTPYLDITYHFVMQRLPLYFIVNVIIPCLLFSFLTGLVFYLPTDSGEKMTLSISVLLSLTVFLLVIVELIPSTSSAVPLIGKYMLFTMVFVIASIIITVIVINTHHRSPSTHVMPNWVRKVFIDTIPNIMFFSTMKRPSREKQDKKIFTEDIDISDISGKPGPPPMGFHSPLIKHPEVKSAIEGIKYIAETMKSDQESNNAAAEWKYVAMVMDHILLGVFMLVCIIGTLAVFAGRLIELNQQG

Row | Substance | Binding affinity
1 | 6mer-2-188 (RGYTKR) | 142 Ru
2 | 6mer-2-189 (RWQCKK) | 121 Ru
3 | 6mer-2-190 (KVYLKR) | 148 Ru
4 | 6mer-2-191 (RQLLKR) | 154 Ru
5 | 6mer-2-192 (RWFSKK) | 133 Ru
6 | 6mer-2-193 (KWISKR) | 127 Ru
7 | 6mer-2-194 (KLRLRK) | 154 Ru
8 | 6mer-2-195 (KSRQKR) | 154 Ru
9 | 6mer-2-196 (KSQRKK) | 121 Ru
10 | 6mer-2-197 (RGQYRR) | 126 Ru
11 | 6mer-2-198 (KWYYRK) | 139 Ru
12 | 6mer-2-199 (RGQYKR) | 137 Ru
13 | 6mer-2-200 (RGVQRK) | 121 Ru
14 | 6mer-2-201 (KLFLRR) | 148 Ru
15 | 6mer-2-202 (RLIYKK) | 122 Ru

same assay, conditions: SPR, Resonance Units; peptides tested at 10 μM; 6mer-2 Top sequence (Table 12)

Row | Substance | Binding affinity
16 | 6mer-2-203 (KSRTKR) | 135 Ru
17 | 6mer-2-204 (RRVQKR) | 142 Ru
18 | 6mer-2-205 (KSFQRK) | 147 Ru
19 | 6mer-2-206 (KWQYKK) | 148 Ru
20 | 6mer-2-207 (KWVSKR) | 153 Ru
21 | 6mer-2-208 (RSQQRK) | 128 Ru
22 | 6mer-2-209 (RLYYRK) | 148 Ru
23 | 6mer-2-210 (RSQSRR) | 128 Ru
24 | 6mer-2-211 (RGLSRR) | 135 Ru
25 | 6mer-2-212 (KWQLRR) | 148 Ru
26 | 6mer-2-213 (KSILRR) | 142 Ru
27 | 6mer-2-214 (RWRSRK) | 139 Ru
28 | 6mer-2-215 (RLYYRR) | 123 Ru
29 | 6mer-2-216 (KGILKK) | 126 Ru
30 | 6mer-2-217 (KLFQKK) | 135 Ru
31 | 6mer-2-218 (KGVSKK) | 147 Ru
32 | 6mer-2-219 (RGVSKR) | 153 Ru
33 | 6mer-2-220 (KVYSKR) | 135 Ru
34 | 6mer-2-221 (KQVRKK) | 153 Ru
35 | 6mer-2-222 (RVVYRK) | 127 Ru
36 | 6mer-2-223 (KQLTRR) | 142 Ru
37 | 6mer-2-224 (RLFLKR) | 148 Ru
38 | 6mer-2-225 (KRLLRR) | 145 Ru
39 | 6mer-2-226 (RLLCKR) | 154 Ru

Row | Substance | Binding affinity
40 | 6mer-2-227 (KLQRRK) | 147 Ru
41 | 6mer-2-228 (KGQCKK) | 141 Ru
42 | 6mer-2-229 (RWQSKK) | 127 Ru
43 | 6mer-2-230 (RWIQRR) | 135 Ru
44 | 6mer-2-231 (KGISKK) | 144 Ru
45 | 6mer-2-232 (KQFTRK) | 135 Ru
46 | 6mer-2-234 (RSQTKR) | 142 Ru
47 | 6mer-2-235 (KLVRKK) | 136 Ru
48 | 6mer-2-236 (KWQQKK) | 131 Ru
49 | 6mer-2-237 (RLVYKR) | 123 Ru
50 | 6mer-2-238 (RRRRRK) | 142 Ru
51 | 6mer-2-239 (RGQYKK) | 125 Ru
52 | 6mer-2-240 (RRRCRK) | 142 Ru
53 | 6mer-2-241 (KQLTKR) | 135 Ru
54 | 6mer-2-242 (KSQRRR) | 135 Ru
55 | 6mer-2-243 (KRVLKR) | 148 Ru
56 | 6mer-2-244 (RRFSKR) | 139 Ru
57 | 6mer-2-245 (RSLSKR) | 135 Ru
58 | 6mer-2-246 (KWISKK) | 123 Ru
59 | 6mer-2-247 (KGYQKK) | 146 Ru
60 | 6mer-2-248 (RSYTRR) | 154 Ru
61 | 6mer-2-249 (RGLRKR) | 136 Ru
62 | 6mer-2-250 (KRRRKK) | 145 Ru
63 | 6mer-2-251 (KSQTKR) | 142 Ru

Row | Substance | Binding affinity
64 | 6mer-2-252 (KVFRKK) | 148 Ru
65 | 6mer-2-253 (KLRSRR) | 145 Ru
66 | 6mer-2-254 (KRIQRR) | 148 Ru
67 | 6mer-2-255 (RLRRKK) | 139 Ru
68 | 6mer-2-256 (KSQQKR) | 142 Ru
69 | 6mer-2-257 (KRFCRK) | 144 Ru
70 | 6mer-2-258 (KRIYRR) | 125 Ru
71 | 6mer-2-259 (RVQSKR) | 128 Ru
72 | 6mer-2-260 (RRFCKR) | 142 Ru
73 | 6mer-2-261 (RWYTKK) | 121 Ru
74 | 6mer-2-262 (KWILKR) | 142 Ru
75 | 6mer-2-263 (RRICKR) | 145 Ru
76 | 6mer-2-264 (KSQLKR) | 127 Ru
77 | 6mer-2-265 (RRQTRK) | 135 Ru
78 | 6mer-2-266 (RWQTKK) | 131 Ru
79 | 6mer-2-267 (KLYSRR) | 141 Ru
80 | 6mer-2-268 (RQICKK) | 139 Ru
81 | 6mer-2-269 (KWVQRK) | 123 Ru
82 | 6mer-2-270 (KSRLRR) | 148 Ru
83 | 6mer-2-271 (RLFQKK) | 131 Ru
84 | 6mer-2-272 (KWRSRK) | 154 Ru
85 | 6mer-2-273 (KLRQRR) | 131 Ru
86 | 6mer-2-274 (KLRTKR) | 148 Ru
87 | 6mer-2-275 (KLITRR) | 135 Ru

Row | Substance | Binding affinity
88 | 6mer-2-276 (RLVCRK) | 153 Ru
89 | 6mer-2-277 (RLRYRK) | 128 Ru
90 | 6mer-2-278 (RQIQKK) | 135 Ru
91 | 6mer-2-279 (KSLQRK) | 148 Ru
92 | 6mer-2-280 (KSIYRR) | 153 Ru
93 | 6mer-2-281 (KGQRKK) | 149 Ru
94 | 6mer-2-282 (RQQYRK) | 151 Ru
95 | 6mer-2-283 (KLISKR) | 148 Ru
96 | 6mer-2-284 (KLRSKR) | 151 Ru
97 | 6mer-2-285 (RRIQRR) | 142 Ru
98 | 6mer-2-286 (KRRYKK) | 139 Ru
99 | 6mer-2-287 (RLYLKR) | 124 Ru
100 | 6mer-2-288 (KSRLRK) | 122 Ru
101 | 6mer-2-289 (RLLQKK) | 146 Ru
102 | 6mer-2-290 (RQLYRK) | 135 Ru
103 | 6mer-2-291 (RRYRKR) | 154 Ru
104 | 6mer-2-292 (RQLCKR) | 121 Ru
105 | 6mer-2-293 (KQQSKR) | 153 Ru
106 | 6mer-2-294 (KLYYRR) | 135 Ru
107 | 6mer-2-295 (KVRYKK) | 145 Ru
108 | 6mer-2-296 (KWYRRK) | 135 Ru
109 | 6mer-2-297 (RSLSRR) | 139 Ru
110 | 6mer-2-298 (KWICKK) | 149 Ru
111 | 6mer-2-299 (RWYYRK) | 141 Ru

Row | Substance | Binding affinity
112 | 6mer-2-300 (RWRLKK) | 153 Ru
113 | 6mer-2-301 (RQVRKR) | 122 Ru
114 | 6mer-2-302 (KQICKK) | 148 Ru
115 | 6mer-2-303 (KVFTKR) | 126 Ru
116 | 6mer-2-304 (KWFYRK) | 144 Ru
117 | 6mer-2-305 (KQFYKK) | 154 Ru
118 | 6mer-2-306 (RQFQKR) | 141 Ru
119 | 6mer-2-307 (RLRSKK) | 141 Ru
120 | 6mer-2-308 (KGISKR) | 148 Ru
121 | 6mer-2-309 (KRRRRR) | 151 Ru
122 | 6mer-2-310 (KLFQRK) | 149 Ru
123 | 6mer-2-311 (KVVTRK) | 147 Ru
124 | 6mer-2-312 (KWRTKR) | 121 Ru
125 | 6mer-2-313 (RWRTKR) | 154 Ru
126 | 6mer-2-314 (KQYCKK) | 127 Ru
127 | 6mer-2-315 (RRQRRR) | 139 Ru
128 | 6mer-2-316 (KGIRRR) | 139 Ru
129 | 6mer-2-317 (RGLYKR) | 135 Ru
130 | 6mer-2-318 (RGIQKK) | 145 Ru
131 | 6mer-2-319 (RSRQRK) | 137 Ru
132 | 6mer-2-320 (RQYRRK) | 148 Ru
133 | 6mer-2-321 (KLVSRK) | 139 Ru
134 | 6mer-2-322 (RRYSRR) | 148 Ru
135 | 6mer-2-323 (KVLLRK) | 145 Ru

Row | Substance | Binding affinity
136 | 6mer-2-324 (KLQSRK) | 139 Ru
137 | 6mer-2-325 (RVFSRK) | 142 Ru
138 | 6mer-2-326 (RGFYKK) | 142 Ru
139 | 6mer-2-327 (KGLRKR) | 153 Ru
140 | 6mer-2-328 (KRYQRK) | 131 Ru
141 | 6mer-2-329 (RVYTKR) | 142 Ru
142 | 6mer-2-330 (KQLRKK) | 139 Ru
143 | 6mer-2-331 (RWVSKK) | 148 Ru
144 | 6mer-2-332 (RRQYKK) | 145 Ru
145 | 6mer-2-333 (KRFRRK) | 139 Ru
146 | 6mer-2-334 (KVILRR) | 146 Ru
147 | 6mer-2-335 (KWRSRR) | 153 Ru
148 | 6mer-2-336 (KLITKR) | 135 Ru
149 | 6mer-2-337 (KQFQKK) | 142 Ru
150 | 6mer-2-338 (RSVQKR) | 145 Ru
151 | 6mer-2-339 (KQVYKK) | 151 Ru
152 | 6mer-2-340 (RRLTRR) | 122 Ru
153 | 6mer-2-341 (KVVTKR) | 144 Ru
154 | 6mer-2-342 (KRYRKK) | 145 Ru
155 | 6mer-2-343 (KQISKK) | 146 Ru
156 | 6mer-2-344 (KGIRRK) | 148 Ru
157 | 6mer-2-345 (KSRQKK) | 148 Ru
158 | 6mer-2-346 (KRFSKK) | 153 Ru
159 | 6mer-2-347 (RRYSKK) | 148 Ru
